We go through seven molecules from PMC314469, “Protein Interaction Networks by Proteome Peptide Scanning” (PLoS Biology, 2004).

First the molecules themselves.
B1: YLR143W 384-397 (peptide)
chain: LDLSKYGPLPPSRA
B2: YKL196C 79-92 (peptide)
chain: LITDKEYPVRPAYT
B3: YIL113W 50-63 (peptide)
chain: LDVRRIYPKGPLLV
B4: YKR003W 305-318 (peptide)
chain: LDTHKESPLRPKVR
B5: YAR009C 1032-1045 (peptide)
chain: LIWHKNKPTEPDNK
B6: YJL176C 589-602 (peptide)
chain: LGPLKYAPHLPFSK
B7: YML034W 45-58 (peptide)
chain: LFDEKVKPQIPQLR

In the first assay the target is T1, Boi1 SH3 (BOI1_YEAST), P38041.
T1 chain: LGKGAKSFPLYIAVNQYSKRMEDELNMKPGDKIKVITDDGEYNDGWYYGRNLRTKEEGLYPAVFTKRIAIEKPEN
The assay is described as follows: SPOT array.
For the molecule B1, the normalised SPOT signal, Boehringer light units (BLU); mean over the file's lines of this peptide is 1630.

B2 came in with a normalised SPOT signal, Boehringer light units (BLU); mean over the file's lines of this peptide of 139.

Consider B3, for which the normalised SPOT signal, Boehringer light units (BLU); mean over the file's lines of this peptide was determined as 4730.

In the case of B4, the normalised SPOT signal, Boehringer light units (BLU); mean over the file's lines of this peptide is 2820.

The molecule B5 displayed a normalised SPOT signal, Boehringer light units (BLU); mean over the file's lines of this peptide of 120.

Regarding B6, the normalised SPOT signal, Boehringer light units (BLU); mean over the file's lines of this peptide was 133.

Molecule B7 returned a normalised SPOT signal, Boehringer light units (BLU); mean over the file's lines of this peptide of 59.1.

The next assay deals with Sho1 SH3 (SHO1_YEAST), P40073. The assay is described as follows: SPOT array.
Chain of Sho1 SH3 (SHO1_YEAST), P40073 (P40073 295-366): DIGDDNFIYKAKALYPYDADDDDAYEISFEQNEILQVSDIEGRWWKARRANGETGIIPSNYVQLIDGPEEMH
The molecule B1 returned a normalised SPOT signal, Boehringer light units (BLU); mean over the file's lines of this peptide of 78.9.

B2: the normalised SPOT signal, Boehringer light units (BLU); mean over the file's lines of this peptide is 7.7.

B3 displayed a normalised SPOT signal, Boehringer light units (BLU); mean over the file's lines of this peptide of 131.

B4 had a normalised SPOT signal, Boehringer light units (BLU); mean over the file's lines of this peptide of 46.9.

The molecule B5 registered a normalised SPOT signal, Boehringer light units (BLU); mean over the file's lines of this peptide of 82.2.

On to B6, for which the normalised SPOT signal, Boehringer light units (BLU); mean over the file's lines of this peptide was found to be 227.

With B7, the normalised SPOT signal, Boehringer light units (BLU); mean over the file's lines of this peptide came to 18.8.

The next assay concerns the target T2, Boi2 SH3 (BOI2_YEAST), P39969.
T2 chain: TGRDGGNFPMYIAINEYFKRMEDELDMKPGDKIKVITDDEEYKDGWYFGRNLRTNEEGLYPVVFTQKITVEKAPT
The assay is described as follows: SPOT array.
Take B1: the normalised SPOT signal, Boehringer light units (BLU); mean over the file's lines of this peptide came to 20.4.

Turning to B2, the normalised SPOT signal, Boehringer light units (BLU); mean over the file's lines of this peptide is 21.9.

As to B3, the normalised SPOT signal, Boehringer light units (BLU); mean over the file's lines of this peptide was determined as 10.8.

In the case of B4, the normalised SPOT signal, Boehringer light units (BLU); mean over the file's lines of this peptide turned out to be 18.9.

Molecule B5 had a normalised SPOT signal, Boehringer light units (BLU); mean over the file's lines of this peptide of 29.2.

B6 returned a normalised SPOT signal, Boehringer light units (BLU); mean over the file's lines of this peptide of 71.6.

The molecule B7 came in with a normalised SPOT signal, Boehringer light units (BLU); mean over the file's lines of this peptide of 4.9.

For a further assay, the target named is T3, Rvs167 SH3 (RV167_YEAST), P39743.
T3 chain: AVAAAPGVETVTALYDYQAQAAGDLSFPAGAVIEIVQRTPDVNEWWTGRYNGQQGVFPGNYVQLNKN
As to the kind of experiment: SPOT array.
Regarding B1, the normalised SPOT signal, Boehringer light units (BLU); mean over the file's lines of this peptide is 207.

With B2, the normalised SPOT signal, Boehringer light units (BLU); mean over the file's lines of this peptide worked out at 17.5.

B3 came in with a normalised SPOT signal, Boehringer light units (BLU); mean over the file's lines of this peptide of 34.3.

For the molecule B4, the normalised SPOT signal, Boehringer light units (BLU); mean over the file's lines of this peptide was found to be 34.1.

B5: the normalised SPOT signal, Boehringer light units (BLU); mean over the file's lines of this peptide came out at 102.

Molecule B6 displayed a normalised SPOT signal, Boehringer light units (BLU); mean over the file's lines of this peptide of 81.1.

In turn, B7 yielded a normalised SPOT signal, Boehringer light units (BLU); mean over the file's lines of this peptide of 66.6.

The target of another assay is T4, Yfr024 SH3 (LSB3_YEAST), P43603.
T4 chain: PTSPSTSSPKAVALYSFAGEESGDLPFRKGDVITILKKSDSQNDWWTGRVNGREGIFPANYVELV
The assay is described as follows: SPOT array.
As to B1, the normalised SPOT signal, Boehringer light units (BLU); mean over the file's lines of this peptide stood at 359.

Molecule B2 came in with a normalised SPOT signal, Boehringer light units (BLU); mean over the file's lines of this peptide of 126.

As to B3, the normalised SPOT signal, Boehringer light units (BLU); mean over the file's lines of this peptide was determined as 157.

As to B4, the normalised SPOT signal, Boehringer light units (BLU); mean over the file's lines of this peptide came to 58.4.

In turn, B5 registered a normalised SPOT signal, Boehringer light units (BLU); mean over the file's lines of this peptide of 587.

With B6, the normalised SPOT signal, Boehringer light units (BLU); mean over the file's lines of this peptide worked out at 213.

For B7, the normalised SPOT signal, Boehringer light units (BLU); mean over the file's lines of this peptide came to 42.8.

A further assay addresses T5, Myo5 SH3 (MYO5_YEAST), Q04439.
T5 chain: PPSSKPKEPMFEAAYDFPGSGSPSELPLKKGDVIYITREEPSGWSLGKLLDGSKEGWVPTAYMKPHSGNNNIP
As to the kind of experiment: SPOT array.
For B1, the normalised SPOT signal, Boehringer light units (BLU); mean over the file's lines of this peptide is 154.

B2 registered a normalised SPOT signal, Boehringer light units (BLU); mean over the file's lines of this peptide of 136.

For the molecule B3, the normalised SPOT signal, Boehringer light units (BLU); mean over the file's lines of this peptide came out at 232.

For the molecule B4, the normalised SPOT signal, Boehringer light units (BLU); mean over the file's lines of this peptide is 199.

B5 gave a normalised SPOT signal, Boehringer light units (BLU); mean over the file's lines of this peptide of 155.

B6: the normalised SPOT signal, Boehringer light units (BLU); mean over the file's lines of this peptide worked out at 428.

B7 came in with a normalised SPOT signal, Boehringer light units (BLU); mean over the file's lines of this peptide of 89.2.

Another assay addresses T6, Yhr016c SH3 (YSC84_YEAST), P32793.
T6 chain: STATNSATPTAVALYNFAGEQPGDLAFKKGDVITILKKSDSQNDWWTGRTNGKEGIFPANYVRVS
As to the kind of experiment: SPOT array.
B1 showed a normalised SPOT signal, Boehringer light units (BLU); mean over the file's lines of this peptide of 256.

B2: the normalised SPOT signal, Boehringer light units (BLU); mean over the file's lines of this peptide amounted to 19.3.

In turn, B3 had a normalised SPOT signal, Boehringer light units (BLU); mean over the file's lines of this peptide of 32.3.

As for B4, the normalised SPOT signal, Boehringer light units (BLU); mean over the file's lines of this peptide amounted to 32.8.

Consider B5, for which the normalised SPOT signal, Boehringer light units (BLU); mean over the file's lines of this peptide stood at 94.9.

The molecule B6 displayed a normalised SPOT signal, Boehringer light units (BLU); mean over the file's lines of this peptide of 150.

The molecule B7 gave a normalised SPOT signal, Boehringer light units (BLU); mean over the file's lines of this peptide of 15.7.
